The source of these data is article PMC12081870 (Communications Biology, 2025).

Values joined by “and” are separate entries in the source; they are usually repeats but may differ in a detail not shown here. Equal entries are not always repeated. Ends that are not written are not given here.

Experiment [1] concerns Las17-GFP and Arc15-mCherry. The experiment is described as follows: Dual-reporter lifetimes, Las17-GFP and Arc15-mCherry co-localisation. Format: cell-based, Saccharomyces cerevisiae. The arrangement: lifetime, GFP alone / lifetime, GFP and RFP / lifetime, RFP: unit not given here. To be noted: sheet Fig9E, individual endocytic patches, one per cell. On the procedure: A size bar for each set of kymographs is shown on the upper right of each set. For (A) and (C) size bar is 100 nm and for B is 200 nm. Error bars are standard deviation. […] The site of interest is labelled in the first two time panels with a white arrow. Exposure 0.5 sec with 1 second time lapse. 120 s recorded. […] Error bars are standard deviation.
Individual spots were analysed for lifetimes and behaviours.
Yeast strains used in this study are listed in Supplementary table 2 and plasmids used in Supplementary table 1. Unless stated otherwise, cells were grown with rotary shaking at 30 °C in liquid YPD medium (1% yeast extract, 2% Bacto-peptone, 2% glucose supplemented with 40 μg/ml adenine) or in synthetic medium (0.67% yeast nitrogen base, 2% glucose) with appropriate supplements. […] DNA cassettes carrying mutations for integration were transformed into KAY1801. Mutant colonies were counter-selected on minimal medium, containing 0.005% uracil and 0.1% 5’-Fluoroorotic Acid (5-FOA; Melford laboratories). Allele exchange, in growing Ura3^-, 5-FOA resistant colonies, was confirmed by PCR and sequencing.
For live-cell imaging, cells expressing tagged proteins were visualised after growing to early log phase. Analysis was carried out at room temperature (22 °C). […] Images were taken simultaneously on separate scientific complementary metal oxide semiconductor (sCMOS) cameras (30 msec exposure). Seven 250 nm sections were acquired every 0.5 sec (241 time points). The stacks were then deconvolved and processed, using SoftWorx. Protein localisation and lifetime was analysed from those projections. Fiji software was used to assemble movies and kymographs, to track and record behaviour of individual spots. Graphs show mean ± SD. […] Where appropriate data was tested for normal distribution using Graphpad Prism software, and then subjected to the appropriate test as described in the methods for each experiment type.

For experiment [2], the system named is Las17 12mer peptides / GST-Sla1 SH3 domains. The experiment is described as follows: Peptide spot array (Celluspot) of Las17 12mers probed with GST-Sla1 SH3 domains. It counts as binding, Saccharomyces cerevisiae. To be noted: GST-Sla1 SH3 domain on 12mer array, 2-residue offset, anti-GST HRP, chemiluminescence. On the procedure: A Purified individual GST-tagged Sla1 SH3 domains were used to probe a Celluspot array consisting of a series of 12 amino acid peptides starting with residue 181, and subsequent peptides starting at two amino acid intervals, up to amino acid 540. Binding of GST-Sla1 SH3 to the array was identified by further probing of HRP-tagged anti-GST and subsequent visualisation using chemiluminescence. […] Error bars are standard error of mean.
They were incubated with GST fused SH3 domains of Sla1 or with GST alone, as described in ref.[57]. Membranes were probed with HRP tagged anti-GST, and the presence of SH3-GST fusion protein was detected with ECL chemiluminescent detection solution (Thermo Fisher Scientific).

In experiment [3] the test system is Las17-Arp2/3 mediated actin polymerisation. The settings on record: 15 nM Las17, 1 µM Sla1 SH3 domains, ref [13]; cited from earlier work. From the text: In Sla1 the first two SH3 domains are immediately juxtaposed with no linker. There are then 236 residues before the third SH3 domain (Fig. 1A).
Experiment [4] is described as follows: Liposome co-sedimentation assay. The arrangement: unit: %. Format: binding. On the procedure:
Liposome binding assays were carried out as described previously. To prepare liposomes 11 μl of a 25 mg/ml solution of Folch fraction-1 was dried under a nitrogen stream. They were washed in chloroform, dried under nitrogen, and further washed with diethyl ether to remove all traces of chloroform before being dried again. The dried lipid mixture was resuspended in 200 µl of buffer B (20 mM HEPES pH 7.2, 100 mM KCl, 2 mM MgCl2, 1 mM DTT) at 37 °C for 30 min with regular gentle agitation. Liposomes were then extruded 11 times through polycarbonate filters with 1.0 μm pores. For liposome binding assays 20 μM Sla1 (pre-spun at 313,000 × g for 15 min) was mixed with 20 μl liposomes in buffer B, (final volume 50 µl) and incubated at room temperature for 15 min. Liposomes and bound protein were pelleted by centrifugation at 250,000 × g for 15 min, and supernatants and pellets carefully separated. The pellets were resuspended in 50 µl buffer B and samples were analysed by SDS-PAGE. The proportion of protein in each sample was determined by densitometry of the Coomassie stained gels using a BioRad GelDoc. Replicate experiments were carried out with protein from different preparations. To normalise the data the amount of protein in the supernatant and pellet of each sample was added together to give a value for 100%, and then the % in either the supernatant or pellet alone was calculated. When liposomes were included in the pyrene actin assay they were prepared as described for liposome binding assays, but the dried lipid mixture was resuspended in 5×KME in place of liposome buffer. This was then used as a source of KME in the pyrene actin assay as well as a source of lipid. Mean ± SD is shown n = 6. Sîdák’s multiple comparisons test was carried out using Graphpad Prism software, **** denotes two tailed P value of < 0.0001.
Liposome binding studies: triplicate experiments were carried out with protein from different preparations. To normalise the data the amount of protein in the supernatant and pellet of each sample was added together to give a value for 100%, and then the % in either the supernatant or pellet alone was calculated. Mean ± SD is shown n = 6. Sîdák’s multiple comparisons test was carried out using Graphpad Prism software, **** denotes two tailed P value of < 0.0001.

The target in experiment [5] is T1, Las17 PPR-N fragment (residues 300-422), wild type (S. cerevisiae, UniProt Q12446 300-422).
T1 construct: Las17 (yeast WASP family protein, Las17/Bee1), S. cerevisiae, residues 300-422 (N-terminal half of the polyproline region, PPR-N); also called Las17(300-422); Las17 300-422; source: E. coli, purified (GST fusion on glutathione Sepharose, cleaved with PreScission Protease; a His-tagged form purified on a nickel column was also made)
Nature of the experiment: BLI; Octet R2 (Sartorius); Octet NTA Biosensors or Octet GST Biosensors, which partner was loaded is not stated; repeated three times; the constant of SH3#1-3 is called apparent. The settings on record: both partners purified. (In general: Biolayer interferometry detects binding as a change in optical thickness at a sensor tip.)

Experiment [6] has as its target T2, Sla1 SH3#1-2 tandem domains (aa 5-131) (S. cerevisiae, UniProt P32790 5-131, 15N-labelled (NMR only)).
T2 construct: Sla1, S. cerevisiae, first two SH3 domains (juxtaposed, no linker), residues 5-131; also called Sla1 SH3 domains 1 and 2; tandem SH3#1&2 domain; source: E. coli, purified (GST fusion, cleaved with Prescission protease; His-tagged Sla1-SH3 domains were also made); 15N- or 15N,13C-labelled for NMR
T2 sequence (looked up): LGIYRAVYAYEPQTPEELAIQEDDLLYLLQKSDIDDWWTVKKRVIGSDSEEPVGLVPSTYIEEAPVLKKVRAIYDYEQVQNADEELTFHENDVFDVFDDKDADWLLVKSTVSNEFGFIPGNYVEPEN
Nature of the experiment: NMR titration; 15N-labelled Sla1 SH3 domains, 1H-15N HSQC; concentrated peptide stocks in the same buffer and pH added stepwise (0 to 8 equivalents shown); shift changes fitted to the standard quadratic equation. To be noted: both partners purified.

Experiment [7] has as its target Las17 PPR-N fragment (residues 300-422). Nature of the experiment: Biolayer Interferometry (BLI), Sla1 SH3 domains to Las17 PPR-N. Format: binding, Saccharomyces cerevisiae. The settings on record: Biolayer Interferometry, Octet R2, Las17 (aa 300-422); three repeats with newly prepared protein; read-out: binding affinity (Kd). An excerpt:
To investigate binding characteristics of the SH3 domains further, Sla1 SH3 protein domains were purified. Three Sla1 SH3 single domains, tandem domains Sla1 SH3#1&2, Sla1 SH3#1&2 W108A (in which the W108A mutation prevents proline motif binding by SH3#2 but not SH3#1) and a fragment with all three SH3 domains were expressed recombinantly and purified. […] This outcome is in line with original research of Rodal and colleagues and with more recent studies of avidity developed by Williamson, which highlighted the importance of tandem binding SH3 domains[13],[27].
Biolayer Interferometry (BLI) assays were performed using an OctetⓇ R2 (Sartorius). Protein samples were placed into the wells of a polystyrene plate (ProxiPlateTM, Perkin Elmer) and binding measured either with Octet NTA Biosensors or Octet GST Biosensors. Screening assays were performed to determine the optimum loading concentration and time for each binding pair to ensure that the probe was not saturated. All experiments were repeated three times, each time with newly prepared protein. Analysis and visualisation were performed using GraphPad Prism 10.0.2.

Take “wt: wild type cells with Las17-GFP and Arc15-mCherry”: in experiment [1], the “lifetime, GFP alone” value is 20 (3×) and 22 (4×) and 18 (2×) and 28 and 24 and 26 (2×); the “lifetime, GFP and RFP” value was 30 and 44 and 36 and 32 (4×); the “lifetime, RFP” value was 34 and 48 and 44 and 36 (3×) and 46.
Regarding “Sla1 SH3#3: SH3#3 (aa 354-413) (SKKRGIVQYDFMAESQDELTIKSGDKVYILDDKKSKDWWMCQLVDSGKSGLVPAQFIEPV; also: 15N-labelled)”, the “binding to Las17 peptide spots” value in experiment [2] was “strongest binding for peptides in proline tracts 1 and 3”. The “inhibition of actin polymerisation activity” value in experiment [3] is given as “not”.

B1: GST-Sla1 SH3#1-3: GST-tagged Sla1 SH3#1-3 containing the predicted PH domain (protein, UniProt P32790 5-413, looked up, fragment)
chain: LGIYRAVYAYEPQTPEELAIQEDDLLYLLQKSDIDDWWTVKKRVIGSDSEEPVGLVPSTYIEEAPVLKKVRAIYDYEQVQNADEELTFHENDVFDVFDDKDADWLLVKSTVSNEFGFIPGNYVEPENGSTSKQEQAPAAAEAPAATPAAAPASAAVLPTNFLPPPQHNDRARMMQSKEDQAPDEDEEGPPPAMPARPTATTETTDATAAAVRSRTRLSYSDNDNDDEEDDYYYNSNSNNVGNHEYNTEYHSWNVTEIEGRKKKKAKLSIGNNKINFIPQKGTPHEWSIDKLVSYDNEKKHMFLEFVDPYRSLELHTGNTTTCEEIMNIIGEYKGASRDPGLREVEMASKSKKRGIVQYDFMAESQDELTIKSGDKVYILDDKKSKDWWMCQLVDSGKSGLVPAQFIEPV
modifications: GST tag
notes: GST-tagged Sla1 SH3#1-3 containing the predicted PH domain
On to B1, for which the liposome co-sedimentation result in experiment [4] (20 μM Sla1, buffer B, room temperature 15 min, 250,000 × g) is recorded as “co-precipitates with liposomes”; in experiment [4] (- lipid, replicate 1) it was 0; in experiment [4] (- lipid, replicate 2) it was 11.5044; in experiment [4] (- lipid, replicate 3), 0; in experiment [4] (- lipid, replicate 4) it was 2.9; in experiment [4] (- lipid, replicate 5) it was 3. For the same molecule, in experiment [4] (- lipid, replicate 6), the liposome co-sedimentation worked out at 5.

B2: Sla1 SH3#1 (aa 3-68) (domain or fragment, S. cerevisiae, UniProt P32790 3-68, looked up)
chain: VFLGIYRAVYAYEPQTPEELAIQEDDLLYLLQKSDIDDWWTVKKRVIGSDSEEPVGLVPSTYIEEA
notes: Sla1, S. cerevisiae, first SH3 domain, residues 3-68; also called Sla1 SH3 domain 1; source: E. coli, purified (GST fusion, GST removed with thrombin; His-tagged Sla1-SH3 domains were also made)
For B2, in experiment [5], the Kd worked out at 7.5 µM.

B3: Sla1 SH3#1: Sla1 SH3#1 (aa 3-68) (protein)
chain: VFLGIYRAVYAYEPQTPEELAIQEDDLLYLLQKSDIDDWWTVKKRVIGSDSEEPVGLVPSTYIEEA
modifications: left off: GST, end not stated, kept
B3: the “binding to Las17 peptide spots” value in experiment [2] is “preference for sequences in the Las17 proline tracts 2 and 3”. Further, in experiment [3], the “inhibition of actin polymerisation activity” value was “about 80%”.

B4: Las17 peptide p3 (PP3 motif) (peptide)
peptide: LPAQTGRRGPAPPPPPRASRPTP
notes: Las17, S. cerevisiae, third PP motif; also called peptide 3; source: synthetic peptide (GenScript Biotech, UK)
As to B4, in experiment [6], the “Kd at site SH3#1” value is roughly 24 µM and the “Kd at site SH3#2” value is roughly 190 µM.

B5: Sla1 SH3 1&2-W108A: W108A mutation prevents proline motif binding by SH3#2 but not SH3#1 (protein, UniProt P32790 5-131, looked up, variant W108A)
chain: LGIYRAVYAYEPQTPEELAIQEDDLLYLLQKSDIDDWWTVKKRVIGSDSEEPVGLVPSTYIEEAPVLKKVRAIYDYEQVQNADEELTFHENDVFDVFDDKDADALLVKSTVSNEFGFIPGNYVEPEN
As to B5, in experiment [7], the Kd came out at 7.4 µM.

B6: Sla1 SH3#3 (aa 354-413) (domain or fragment, S. cerevisiae, UniProt P32790 354-413, looked up)
chain: SKKRGIVQYDFMAESQDELTIKSGDKVYILDDKKSKDWWMCQLVDSGKSGLVPAQFIEPV
modifications: also: 15N-labelled
notes: Sla1, S. cerevisiae, third SH3 domain, residues 354-413; also called Sla1 SH3 domain 3; source: E. coli, purified (GST fusion, GST removed with thrombin; His-tagged Sla1-SH3 domains were also made); 15N-labelled for NMR
In the case of B6, in experiment [5], the Kd came out at 16 µM.

B7: Las17 peptide p1 (PP1 motif) (peptide)
peptide: RNNRPVPPPPPMRTTTEGSGVR
notes: Las17, S. cerevisiae, first PP motif; also called peptide 1; source: synthetic peptide (GenScript Biotech, UK)
On to B7, for which, in experiment [6], the “Kd at site SH3#1” value is roughly 70 µM and the “Kd at site SH3#2” value was roughly 550 µM.
